Laboratory results as given in publication PMC8368038 (The Journal of Biological Chemistry, 2021).

B1: KANK1_ANKRD^SF (Trx-tagged) (domain or fragment, mouse, UniProt E9Q238 1081-1360, looked up)
chain: EPEKEEIRERYELSEKMLSACNLLKYNIKDPKALASKDMRICLNTLQHDWFRVSSQKSAVPAMVGDYIAAFEAVSPDVLRYIINMADGNGNTALHYSVFHSNFQIVKLLLDADVCNVDHQNKAGYTPIMLAALAAVEAEKDMQVVEELFSCGDVNAKASQAGQTALMLAVSHGRIDMVKGLLACGADVNIQDDEGSTALMCASEHGHVEIVKLLLAQPGCNGHLEDNDGSTALSIALEAGHKDIAVLLYAHLNFSKAQSPSTPRLGRKTSPGPTHRGSFD
B2: eIF4A1 NTD (residues 1-237) (domain or fragment, mouse, UniProt P60843 1-237, looked up)
chain: MSASQDSRSRDNGPDGMEPEGVIESNWNEIVDSFDDMNLSESLLRGIYAYGFEKPSAIQQRAILPCIKGYDVIAQAQSGTGKTATFAISILQQIELDLKATQALVLAPTRELAQQIQKVVMALGDYMGASCHACIGGTNVRAEVQKLQMEAPHIIVGTPGRVFDMLNRRYLSPKYIKMFVLDEADEMLSRGFKDQIYDIFQKLNSNTQVVLLSATMPSDVLEVTKKFMRDPIRILVK
B3: KANK1_ANKRD^SF (residues 1088-1338, crystallised) (domain or fragment, mouse, UniProt E9Q238 1088-1338, looked up)
chain: RERYELSEKMLSACNLLKYNIKDPKALASKDMRICLNTLQHDWFRVSSQKSAVPAMVGDYIAAFEAVSPDVLRYIINMADGNGNTALHYSVFHSNFQIVKLLLDADVCNVDHQNKAGYTPIMLAALAAVEAEKDMQVVEELFSCGDVNAKASQAGQTALMLAVSHGRIDMVKGLLACGADVNIQDDEGSTALMCASEHGHVEIVKLLLAQPGCNGHLEDNDGSTALSIALEAGHKDIAVLLYAHLNFSKAQ

Tests used:
[1] = target: eukaryotic translation initiation factor 4A1 (eIF4A1), Trx-tagged (mouse, UniProt P60843 1-406); assay: ITC
eIF4A1 Q148L = eIF4A1 Q148L (mouse, UniProt P60843 1-406, Q148L); assay: ITC
[2] = target: B1; assay: SEC
[3] = target: eIF4A1_NTD (residues 1-238, crystallised) (mouse, UniProt P60843 1-238); assay: crystal structure

Binder: B1
binding result [1]: binds | Kd (eIF4A1 Q148L): 1900 nM

Binder: B2
binding result [2]: binds

Binder: B3
stoichiometry N [3]: 1
